This series is described as follows: label from the status in PepcDB records.

Consider “MFSNQYIQQRIHKANSLREEGKNPYQNGLKRSLTNAAFLEKYAYVKGLEEPKDKEKCESIVGRVKLLRLMGKACFIKVEDESTILQVYVSQNELNDEFKSLKKHLEVGDIVLVKGFPFATKTGELSIHALEFHILSKTIVPLPEKFHGLSDIELRYRQRYLDLIVNPSVKDVFKKRSLIVSSVRKFFEMEGFLEVETPMMHPIPGGANARPFITYHNALEVERYLRIAPELYLKRLIVGGFEAVFEINRNFRNEGMDHSHNPEFTMIEFYWAYHTYEDLIELSKRLFDYLLKTLNLDSKIIYNDMEVDFNQTSVISYLDALETIGGISKDILEKEDRLLAYLLEQGIKVEPNLTYGKLLAEAFDHFVEHQLINPTFVTQYPIEISPLARRNDSNPNIADRFELFIAGKEIANGFSELNDPLDQLERFKNQVAEKEKGDEEAQYMDEDYVWALAHGMPPTAGQGIGIDRLVMLLTGAKSIKDVILFPAMRPVKNDFNVESEE”, for which the protein production result is reported as “failed”. For “MFSPQAYLIFNMRKPPFDNIKVRQAVMHAFNRKLVVDNIFFGLGKISTSPFVPTEMFFDKDIPAIPFDMKKARALIKESGINPGDYTIRQLSFPYGATWDRLGEYTKQALEQLGFKVNVESTDAGGWASRTGNWDFDLTTTYSYQYGDPALGVQRLYVTSNIVKGSPFANMQGYSNPESDKLWEQAAAEVDPAKRQELYNKIQALLVAEVANGFLVDME” the value was “failed”; for “MFSRKDIIVLGMMIFALFLGAGNIIFPPMEGFSSGQHWTSASLGFVLTGVLMPFITLVVVAILGRGEELTKDLPKWAGTGFLVILYLTIGSTFAMPRITNVAYEMAWLPLGLTENNANVRFVFSLIFNLIAMGFMISPNTIISSVGKFMTPALLVLLIAVAITVFISPLSEIQAPSNAYENSHSLLIGLTSGYQTMDVLAAIAFGGIVARALSAKNVTKTKDIVKYTISAGFVSVILLAGLYFSLFYLGATSAAVAEGATNGGQIFSRYVNVLFGSAGTWIMAGIIVLASLTTLVGVTSASADYFSKFSVRFSYPFWAALFTAMTITVSQYGLTDLLRITIPALLLIYPVAIVLVLLQFLRKKLPSIKFTYNSTLLVTVCFSLCDSLNNVKMLPESINSLLKHFPLSSEGMAWLVPTLVMLVASIFIGKALHKTHS”, “failed”; for “MFTDLDLALFFIIIFIVLFIGYIAYFWRKPDDIHKHGEWSLGGRRFGTVVVWFLLGGDLYTAYTLIAVPGAAATPGIGGGAFAMFAITYGIMIYPIVYGTMPRLYNVSKKRGYITAADFVKDRFSSRFLAMLIALTGVLAELPYIALQITGIKYVLASLSLPISISLIIAFLLVAGFTFVSGLRGPALTAIIKDAIIWAAVLVIIVYIPLKLHGFGNIFSKAATISPNLLDISPTIDIGYVSLALGSALALFLYPHAVTGTLGSKDVKTIKRNAALLPLYNVLLMFVAIIGIMSVVYFNAYPKVSSEALPLLVLHVFPSTFTAFAFAAIVVGSIVPASIMALASANLLTRNLYLEYINPNATEKAQTNLSRVLVVVVIVAALAFSLVPAASGEIVYLQTIGGAIIMQTLPSVYLALFTRKLNKYPVGLGWLAGLATTMILLVDLHFKTSLYKGFFFMYVGIIALLINLAVVGLGMLIMAAMHRIKNEGIIEDHEFLDE”, “failed”. In the case of “MFTTTSFPDFDSAAQATLTYLHQRMGLSLWMITRTEVDNWIVLQAQDNGYGVKRGDVFHWPDSFCSRMVRGEGPHIAPQSNLVEAYRNAPIAQQVDIGAYVGVPITYGNGSLFGTLCAIDPEIQPDSLVDELPLVELIAQLLSTILDFFLKAEIASRREEYQQLLKERDGTTGFYSLSGWEKLLASEEIRCQKFGFPVSVIIVEVEAAEPKGEEPINDLILQRAAKIIKTVCRQDDFCARIGEREFAILCIECHISQADFIRERLALGFEQGKITADIGIGERSPEKGLLDAMETAKSAAHEQKKFRVKTEG”, the protein production result is reported as “failed”. Consider “MFVAFNFNKIESITTEKEFKIILNDQIALGKIPDFSKIKITIKVNKDDLKYLDLNKIILFIEASSIKIPGSYKLPIKIKNLNSIHIAEYKLSKTNVLLNLDNKVSKLVKIEPKFKLEHHHHHH”, for which the protein production result is reported as “failed”. Turning to “MFVAREHELQVLEKLFTSDSFEMVVLYGRRRVGKTALIDEFVKDKRVLYFTAIQQSAKMNLEDFSRAALSFFGMPDSTPSFGGWSDALSFVAERAAQTDERMVFVFDEFPYAAAAEPALPSMLQIAIDHGFLATKVTMILSGSNEGFMENDVLGRKSPLYGRRTAQIRLLPFDYADAAKFLTNTSPQELVQYYATFGGTPYYLARIQEADGFESNVLRLMFDNLGVLREEPMMLLRQELREPASYYSILQSIAGGNSSPKLIAEHAGVGSDSIGAYLKTLVDLRLIERKVPFGEDPSKSRKGMYVVSDPFFAYWFRFVGRNMSILDGNISEEVTSRLAFGPAFDTYVGQQFETICLQWLIRNNAMGNLPFVATQFGKWWGNDPIAHEQTDIDVIAADSLDKTILFGECKWRNSFNETEAIEKLHQRAGLVRGYQAGNAWLMLFTKNPVSESTRTRYMDDERMVFVSAEELYTALEHHHHHH”, the protein production result is “failed”. For “MFVELNNLLNTTPDRAEQGKLTLLCDAKTDGSFLVHHFLSFYLKANCKVCFVALIQSFSHYSIVGQKLGVSLTMARERGQLVFLEGLKSAVDVVFQAQKEPHPLQFLREANAGNLKPLFEFVREALKPVDSGEARWTYPVLLVDDLSVLLSLGMGAVAVLDFIHYCRATVCWELKGNMVVLVHDSGDAEDEENDILLNGLSHQSHLILRAEGLATGFCRDVHGQLRILWRRPSQPAVHRDQSFTYQYKIQDKSVSFFCQRNVSCCSVT” the value was “not failed”; for “MFVGREQELASLEEFYAKDGIGMTVIYGRRRIGKSTLITEFVKDKKTVFYTATKIGKARNLELFSKQVLDLFMPGIENISFNSIEAVFDFIDKNIANDKIVLVIDELPYWAEKDDSLLSILQKYIDTIWNDKNLKIILCGSALSFMENKVLSEKSPLFGRRDSQIKLESFNYLDSAKFVPNYSNEDKAICYGITGGVAKYLSMIDPKKNIDENIIRLFFRTDGYLYDETRNLLTQEFSDISLVNNIVEQIASGVNTLNTISGKINEKEPTVLYSLEKLISVGLIEKKKCITEEKNKKKTQYVLKDYMFKFWYEFIPKATSVIEMGQGALYYQKAVKPFLHSFMGSVFEEMCRYYTLNQGITGAYGCFVTSVGTWWGVENITDKNGYIRAQSADIDIVALSDIDKKAVIGECKFKNEKIDKGIYETLVRRGTLISNKYKISKYIFFSLSGYTDWFNSLSDEDVLLLTLDSLYR”, “failed”. Consider “MFVIGIPTLNEADNISRLVKQIDEYAVNLGKEIIIINSDSKSTDGTPQIFLETKTYNTKVSIVSEAKGKGYNVRNIFEYAINHVPNFSGLILIDGDVVSMKKMWLEKMFIAIESGNDLIIPNYARKSFEGNATNHFIYPMLVKIFKRDMPYQCISGDFGFSRGLIKDLTLKCNWHKYTLGYGIDIFLTLTAILKSYKIKEIDLQSKIHKKSFEKIEKIFLEVSQSFFETINDNSLNQDKLRLNINFESHSRQFIKSSDILSSNDIENLKLRALFLLQEEKQYLHGLSEVEWDGILSNTINNIYRYSSEEHSLYLLPLYLLRVYNYLKYN”, for which the protein production result is listed as “failed”.

In the case of “MFVSHGAIVKSAPKHWNGSKCPIRMQVRVPDPDRRSLLRAGAHIILGGLLATVIPGTSPSIAKIREKPTDKGEEAPKIDDEKELDKYVSGLKYEEELYENPDPAEKEVYRTPRVEREPEYKKKEDEILEKESKVLKEEAREAARESEVLRQEFEKR”, the protein production result was “not failed”.

Turning to “MFVVANIVVGIAKILDAILNLYFWVIIAAAVLSWVNPDPYNPVVRVVRNLTEPVFYRVRKWLPFTYVGGLDLSPLVVLLGIQIINSVLVQSLYQLAVRLY”, the protein production entry is listed as “failed”.

(Values after a protein production outcome set (Wang et al. 2014).)
